The record followed here is patent US20110065176A1.

This assay has as its target KDR(ECD1-3)-Fc (human) (UniProt P35968). Briefly: BIAcore; KDR(ECD1-3)-Fc immobilized on CM5 chip, IgG in flow.

KDR(ECD1-3)-Fc (human), sequence (P35968 other isoform, or with tags, fused parts or gaps limits assumed, form in doubt): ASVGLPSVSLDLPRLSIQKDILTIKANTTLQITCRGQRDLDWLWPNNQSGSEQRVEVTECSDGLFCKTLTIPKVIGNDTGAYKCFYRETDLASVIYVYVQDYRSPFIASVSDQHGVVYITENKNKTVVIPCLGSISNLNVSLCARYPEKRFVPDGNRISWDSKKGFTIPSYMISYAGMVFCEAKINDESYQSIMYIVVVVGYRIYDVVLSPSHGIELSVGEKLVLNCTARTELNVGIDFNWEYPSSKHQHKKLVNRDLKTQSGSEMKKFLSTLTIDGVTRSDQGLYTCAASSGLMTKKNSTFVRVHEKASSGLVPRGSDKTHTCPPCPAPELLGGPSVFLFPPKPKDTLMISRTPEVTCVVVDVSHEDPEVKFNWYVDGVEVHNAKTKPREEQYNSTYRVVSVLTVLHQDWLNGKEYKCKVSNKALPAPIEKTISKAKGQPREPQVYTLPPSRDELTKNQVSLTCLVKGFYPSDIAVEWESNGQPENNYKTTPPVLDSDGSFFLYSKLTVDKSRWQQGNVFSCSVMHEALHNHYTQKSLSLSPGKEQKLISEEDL

Turning to IMC-1121 IgG (reconstructed) (antibody), the equilibrium dissociation constant (Kd) came out at 0.385 nM, the koff is 8.75e-05 s⁻¹ and the kon worked out at 227000 M⁻¹ s⁻¹.
